Measurements as given in paper PMC7866087, “Evaluation of Computationally Designed Peptides against TWEAK, a Cytokine of the Tumour Necrosis Factor Ligand Family” (International Journal of Molecular Sciences, 2021).

Target: T1, human His6-TWEAK protein (Homo sapiens, UniProt O43508)
T1 construct: purchased R&D Systems
T1 sequence (O43508 97-249 limits assumed): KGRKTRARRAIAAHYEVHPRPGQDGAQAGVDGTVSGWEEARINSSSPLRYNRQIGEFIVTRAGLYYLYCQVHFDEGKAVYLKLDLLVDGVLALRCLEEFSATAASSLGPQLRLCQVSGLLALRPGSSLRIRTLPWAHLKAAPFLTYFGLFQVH
Test: SPR binding of peptides to immobilized His6-TWEAK
Details: for binding affinity for immobilized TWEAK: negative controls, global curve fit not attempted
Description: SPR biosensor interaction analysis, a label-free screening approach, was used for real-time monitoring of the kinetics and affinity of peptide hits to TWEAK previously identified by cell-based screening. Peptides from pools 1 and 5 were selected both as positive (49, 30, 35 and 43) and negative hits (1 and 42). For our purposes, TWEAK was chosen as ligand, while peptides were chosen as analytes and passed across ligand-derivatized surface. Nitrilotriacetic acid-coated sensor chips (NTA chip) and a coupling approach that results in the capture of a His6-protein in a non-random orientation by the His6 epitope prior to direct free amine-based covalent coupling was used for histidine-tagged TWEAK immobilization.
After chip validation, peptides selected on our cell-based microarray screening were tested.
For each titration, a zero-analyte surface as a control was subtracted from test sensorgram as well as non-specific binding to the blank flow cell without protein; and the chip surface was regenerated in order to remove any remaining analyte. The black curves show the experimental data, while the overlaid red lines represent a global fit of the entire data set to a 1:1 Langmurian interaction model. The fitting process provided both kinetic association and dissociation rate constants (Ka and Kd), as well as equilibrium dissociation constant (KD) values indicated in Figure 6.
Binding assays were performed at 25 °C in a Biacore 3000 instrument (GE Healthcare, Uppsala, Sweden) using nitrilotriacetic (NTA) sensor chips (GE Healthcare) and HBS-EP (0.01 M HEPES pH 7.4, 0.15 M NaCl, 3 mM EDTA, 0.005 % v/v Surfactant P20) as running buffer. Histidine-tagged human TWEAK (His6-TWEAK) protein (R&D Systems, Minneapolis, MN, USA) was covalently immobilized on the sensor surface using a capture coupling method. Briefly, the NTA surface was first stabilized by injection of regeneration buffer (20 μL EDTA-containing running buffer at 20 μL/min) followed by Ni^2+ binding to the surface (40 μL of 500 μM NiCl2 in running buffer at 20 μL/min). The carboxymethyl dextran surface was then activated for primary amine coupling by injecting coupling solution (30 μL of a 1:1 N-hydroxysuccinimide (NHS)/1-ethyl-3-[3-(dimethylamino)-propyl]carbodiimide hydrochloride (EDC) mixture at 5 μL/min). His6-TWEAK protein in pH 7.4 running buffer was then injected over the surface (60 μL of 10 μg/mL His6-TWEAK at 5 μL/min). To block uncoupled primary amines on the sensor surface, ethanolamine was passed over the surface (35 μL 1M ethanolamine at 5 μL/min). Ligand surfaces were finally conditioned with a 20 µL injection of regeneration solution containing 350 mM EDTA at 20 μL/min. Immobilization levels ranged from 1500 to 7000 resonance units (RUimmob) to test different ligand densities. A blank flow cell on the chip was created by simple injection of 20 μL of regeneration buffer injected over the sensor surface.
Binding experiments using a monoclonal anti-TWEAK antibody (Abcam ref. 199405, Cambridge, UK) were run to ascertain adequate functionalization of the immobilized surface. Selected synthetic TWEAK-Fn14 inhibitory peptides at two-fold serial dilutions from 800 µM to 0 µM in running buffer were flown over the chip for 5 min at 35 µL/min. The dissociation phase was monitored for 10 min at the same flow rate and followed by a regeneration step with 10 µL of 18 mM NaOH. Specific binding responses for each channel were obtained by double referencing; subtracting non-specific binding to the blank flow cell plus an internal reference standard, namely buffer injection response. Each sample was run in triplicate. The experimental data were fitted to a 1:1 Langmuir binding model by the BIAevaluation software version 4.1 (GE Healthcare, Uppsala, Sweden).

[1] = 25 °C, HBS-EP pH 7.4, Biacore 3000, NTA chip, 1:1 Langmuir global fit, representative of at least three independent experiments

42: YNGHVKDD [Peptide 42] was tested, and the “binding affinity for immobilized TWEAK” value was “negligible binding affinity”.

For SWYDHMAGDSSY [Peptide 35], the ka [1] was 2.06 M⁻¹ s⁻¹ and the kd [1] was 0.00285 s⁻¹.

In the case of 1: GNGTDDNSGTSY [Peptide 1], the “binding affinity for immobilized TWEAK” value is reported as “negligible binding affinity”.
